Experimental data taken from patent US20070258972A1, “Combination of a Histone Deacetylase Inhibitor with a Death Receptor Ligand” (priority 2003, published 2007).

Tested on: Primary AML cells
Assay: Apoptosis of primary AML cells by annexin V staining and flow cytometry
Type: cell-based, human
Conditions: for % of Apoptosis: LAQ824 100 nM and/or Apo-2L/TRAIL 100 ng/mL, 24 hours
Text: Jurkat T cell leukemia and SKW6.4 B lymphoblast cells are obtained from American Tissue Culture Collection (Manassas, Va.). HL-60/Bcl-2 cells with ectopic over-expression of Bcl-2 and the control HL-60/Neo cells are created and maintained in culture as previously described. Primary leukemia blasts from six patients with AML in relapse are harvested, as previously described, from the peripheral blood or bone marrow after informed consent, as a part of a protocol study sanctioned by the local Institutional Review Board. The purity of leukemia blasts in the samples prior to culture in LAQ824 and/or Apo-2L/TRAIL was at least 80% or more, as determined by morphologic evaluation after Wright staining.
After drug treatments, cells are resuspended in 100 μL of the staining solution containing annexin-V fluorescein and propidium iodide in a HEPES buffer (Annexin-V-FLUOS Staining Kit, Boehringer-Mannheim, and Indianapolis, Ind.). Following incubation at room temperature for 15 minutes, annexin V positive cells are estimated by flow cytometry, as previously described.

B1: Apo-2L/TRAIL: recombinant human trimeric form of Apo-2L/TRAIL from Genentech, Inc., produced in E. coli (protein, UniProt P50591 1-281, looked up)
Tumor necrosis factor ligand …: MAMMEVQGGPSLGQTCVLIVIFTVLLQSLCVAVTYVYFTNELKQMQDKYSKSGIACFLKEDDSYWDPNDEESMNSPCWQVKWQLRQLVRKMILRTSEETISTVQEKQQNISPLVRERGPQRVAAHITGTRGRSNTLSSPNSKNEKALGRKINSWESSRSGHSFLSNLHLRNGELVIHEKGFYYIYSQTYFRFQEEIKENTKNDKQMVQYIYKYTSYPDPILLMKSARNSCWSKDAEYGLYSIYQGGIFELKENDRIFVSVTNEHLIDMDHEASFFGAFLVG
modifications: trimeric
notes: recombinant human trimeric form of Apo-2L/TRAIL from Genentech, Inc., produced in E. coli
% of Apoptosis (Patient 1 primary AML cells, control 7.0): 7.6% | % of Apoptosis (Patient 2 primary AML cells, control 12.0): 14.0% | % of Apoptosis (Patient 3 primary AML cells, control 8.0): 8.6% | % of Apoptosis (Patient 4 primary AML cells, control 10.0): 11.0% | % of Apoptosis (Patient 5 primary AML cells, control 6.0): 6.8% | % of Apoptosis (Patient 6 primary AML cells, control 7.0): 8.1% | apoptosis of primary AML blasts (in words) (six samples, relapsed AML, Apo-2L/TRAIL 100 ng/mL, LAQ824 100 nM): resistant
